The target of the test is wild-type Bcl-xL (mouse full-length, adenovirus-expressed) (mouse) (UniProt Q64373). Put plainly: native gel or EMSA; Blue Native PAGE (4-16% Bis-Tris) of the mitochondrial fraction of adenovirus-transduced TKPTS cells, extracted with 1% n-dodecyl-β-D-maltoside; blots probed for Bcl-xL, then Bax. (In general: In EMSA bound probe runs differently from free probe, usually more slowly.)

The stoichiometry N is a count of units in the complex or per binding partner. Consider “wild-type Bcl-xL (mouse full-length, adenovirus-expressed) (from UniProt Q64373-1 1-233) (natural protein)”, for which the stoichiometry N came to 2.

The values above are taken from publication PMC4877050.
